Molecular target: RmaDnaB-SpdCas9C (Rhodothermus marinus DnaB C-intein fused to the C-terminal split SpdCas9, HA-tagged) (Rhodothermus marinus (C-intein); Streptococcus pyogenes (dCas9 half)) (UniProt Q99ZW2)
Assay: cell-based or functional assay

In the case of “SpdCas9N-RmaDnaB (N-terminal split SpdCas9 fused to the Rhodothermus marinus DnaB N-intein, FLAG-tagged)”, the in vivo reconstitution of tsdCas9, Western blot band intensity, mouse striatum co-transduced with AAV9 was over 50%.
